Data: paper PMC4041212

Columns and labels:
BRCA1 [1] = biological target: BRCA1 (UniProt P38398); assay: reverse co-IP; settings: reference: wild type EXO1; sites S639,T732,S815,T824
BRCA1 [2] = biological target: BRCA1 (UniProt P38398); assay: anti-V5 co-IP, BRCA1 blot; settings: reference: wild type V5-EXO1; sites S639,T732,S815,T824

binding against the reference (BRCA1 [1]): weaker
binding against the reference (BRCA1 [2]): weaker
Substance: EXO1 (from UniProt Q9UQ84) 4A-EXO1
